Experimental findings from the supplement of paper PMC10126150 are described below.

The data set deals with ATP. In words: switch fluorescence ratio, 500 uM ATP over buffer (Cy3 cluster intensity, sum of 5 cycles each) (fold (ratio)); higher = stronger signal-on switching upon ATP binding; sequences stand for … in TCGTCGGCAGCGTCAGATGTGTATAAGAGACAGTTTTTTTTTTTTTTTTTTTTTTTTT…TC. To be noted: aptamer strand: ATP DNA aptamer (quencher-CACCTGGGGGAGTATTGCGGAGGAAGG + anchor), 100 nM annealed; ATP concentration: 500 uM. In short, it runs like this:
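Values give the fluorescence ratio for each switch-domain sequence, averaged from per-cluster ratios of summed target-cycle to summed buffer-cycle Cy3 intensity. The Cy3-labelled switching-strand clusters sat on a modified Illumina MiSeq flow-cell, were annealed to 100 nM quencher-labelled ATP aptamer, and were imaged in selection buffer, then after 15 min with 500 uM ATP at 22 °C. Five cycles ran with NaOH stripping and re-annealing between them, and clusters outside 100-1000 RFU were excluded.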

± gives the standard deviation of the averaged measurements.
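Further: ATP exposure 15 min at 22 °C before imaging.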

Consider AAGGCTAATG, for which the switch fluorescence ratio is 0.953 ± 0.011.

Turning to AAGGCTTAAT, the switch fluorescence ratio was determined as 1.006 ± 0.0063. As for AAGGGAATGG, the switch fluorescence ratio turned out to be 1.04 ± 0.046. For AAGGGAGAGC, the switch fluorescence ratio came to 1.03 ± 0.06. As to AAGGGAGAGG, the switch fluorescence ratio came to 0.985 ± 0.013.

With AAGGGAGGAA, the switch fluorescence ratio came out at 1.02 ± 0.012. As to AAGGGATTAG, the switch fluorescence ratio turned out to be 1.01 ± 0.037. Take AAGGGATTTT: the switch fluorescence ratio stood at 0.999 ± 0.062. On to AAGGGCAGTT, for which the switch fluorescence ratio was found to be 0.97609 ± 0.00084.

As to AAGGGCATTA, the switch fluorescence ratio was 0.9891 ± 0.0096. The same measure for AAGGGCGGGG: 1.01 ± 0.019. In the case of AAGGGGAATC, the switch fluorescence ratio was found to be 1.01 ± 0.024.

AAGGGGACGG: the switch fluorescence ratio was found to be 1 ± 0.03. The same measure for AAGGGGACTC: 0.974 ± 0.04; for AAGGGGATAA: 0.99 ± 0.045. In the case of AAGGGGATGT it was 1.03 ± 0.032; in that of AAGGGGATTC, 1.07 ± 0.012.

With AAGGGGCACA, the switch fluorescence ratio stood at 1.0522 ± 0.00079. In the case of AAGGGGCATG it was 1.001 ± 0.0025; in that of AAGGGGCGGA, 0.97 ± 0.016; in that of AAGGGGGTAT, 0.999 ± 0.043.

Regarding AAGGGGTACA, the switch fluorescence ratio was 1.01 ± 0.02.

AAGGGGTCGG: the switch fluorescence ratio worked out at 1 ± 0.036.

For the sequence AAGGGGTCT, the switch fluorescence ratio is 0.992 ± 0.024. Turning to AAGGGGTTAA, the switch fluorescence ratio was 1.03 ± 0.022.

Turning to AAGGGGTTTG, the switch fluorescence ratio is 0.969 ± 0.032. Turning to AAGGGTAAGT, the switch fluorescence ratio is 1.005 ± 0.0023.

Consider AAGGGTAATG, for which the switch fluorescence ratio amounted to 0.9875 ± 0.0042.

In the case of AAGGGTACCT, the switch fluorescence ratio was determined as 1.018 ± 0.0077. Turning to AAGGGTCAGG, the switch fluorescence ratio is 1.02 ± 0.017. In the case of AAGGGTCCCG it was 0.9735 ± 0.0027; in that of AAGGGTCGCA, 1.03 ± 0.036; in that of AAGGGTCTAA, 0.978 ± 0.037. In the case of AAGGGTGCTT it was 1.018 ± 0.006. Turning to AAGGGTGTTG, the switch fluorescence ratio worked out at 1.01 ± 0.017. With AAGGGTTATT, the switch fluorescence ratio worked out at 1.15 ± 0.16. The same measure for AAGGGTTCAC: 0.9963 ± 0.0031; for AAGGGTTCCG: 1.01 ± 0.047; for AAGGGTTCGG: 1.03 ± 0.026. In the case of AAGGGTTGG, the switch fluorescence ratio worked out at 0.99 ± 0.015.

AAGGGTTGGT: the switch fluorescence ratio was found to be 0.991 ± 0.028. Consider AAGGTAACAA, for which the switch fluorescence ratio amounted to 1.01 ± 0.051. In the case of AAGGTCACGC it was 1.01 ± 0.024. The same measure for AAGGTCAGCT: 0.991 ± 0.016; for AAGGTCGCTG: 0.9861 ± 0.00072.

Regarding AAGGTCGGCC, the switch fluorescence ratio was 0.966 ± 0.017. The same measure for AAGGTCGTTT: 0.9768 ± 0.003; for AAGGTCTAAC: 1.012 ± 0.0067.

For the sequence AAGGTCTGTG, the switch fluorescence ratio turned out to be 0.993 ± 0.014.

Consider AAGGTGGAAG, for which the switch fluorescence ratio was determined as 1.003 ± 0.0046. Take AAGGTGGATA: the switch fluorescence ratio turned out to be 1.11 ± 0.032. For AAGGTGGTGG, the switch fluorescence ratio came to 1.04 ± 0.0016.

In the case of AAGGTTACGT, the switch fluorescence ratio came out at 1.022 ± 0.0072. In the case of AAGGTTAGTA, the switch fluorescence ratio was determined as 0.9924 ± 0.007.

In the case of AAGGTTCATA, the switch fluorescence ratio is 1.01 ± 0.044. The same measure for AAGGTTCTAG: 0.9895 ± 0.0026. The same measure for AAGGTTGAGG: 0.973 ± 0.034; for AAGGTTGGG: 0.989 ± 0.014.

For the sequence AAGGTTGGGA, the switch fluorescence ratio came to 0.962 ± 0.039. In the case of AAGGTTTAAA it was 0.982 ± 0.032; in that of AAGGTTTCC, 1 ± 0.049; in that of AAGGTTTTGG, 1.15 ± 0.24. In the case of AAGTAGACTG, the switch fluorescence ratio was 0.996 ± 0.11.

Regarding AAGTAGGTGC, the switch fluorescence ratio came to 1.13 ± 0.02. Regarding AAGTAGTGGT, the switch fluorescence ratio was determined as 0.979 ± 0.025. The same measure for AAGTATAATA: 1.01 ± 0.035; for AAGTATCGTT: 0.999 ± 0.011.

Regarding AAGTATGTCT, the switch fluorescence ratio was 1 ± 0.039. As for AAGTATTGTT, the switch fluorescence ratio turned out to be 1 ± 0.019.

With AAGTCAAGTA, the switch fluorescence ratio was 0.9581 ± 0.0054.

Consider AAGTCGGGGC, for which the switch fluorescence ratio stood at 1 ± 0.038. In the case of AAGTCTGTCT it was 0.998 ± 0.054. The same measure for AAGTCTTTGG: 0.9599 ± 0.0072; for AAGTGAAGTT: 1.002 ± 0.004; for AAGTGAATTA: 1.0037 ± 0.00073. AAGTGACAGG: the switch fluorescence ratio was 1 ± 0.022. In the case of AAGTGATTGT it was 0.994 ± 0.028. In the case of AAGTGCAAGC it was 1.04 ± 0.027.
